Experimental data reported in US20260265385A1 (ANAPTYSBIO, published 2026).

T1: recombinant human IL-2Rβ (extracellular domain, Ala1-Thr215) (human, UniProt P14784 27-240)
T1 construct: extracellular domain; Analyte in SPR; Ala1-Thr215 is counted on the mature protein; also called human LL-2Rβ; Human IL-2RB
T1 sequence (looked up): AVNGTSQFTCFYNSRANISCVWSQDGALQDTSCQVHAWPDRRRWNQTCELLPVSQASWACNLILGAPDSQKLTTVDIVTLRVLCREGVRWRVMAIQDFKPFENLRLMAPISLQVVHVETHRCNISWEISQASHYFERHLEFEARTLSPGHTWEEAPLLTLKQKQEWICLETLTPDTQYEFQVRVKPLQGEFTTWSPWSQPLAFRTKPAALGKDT

T2: recombinant cynomolgus IL-2Rβ (extracellular domain, Ala1-Thr215) (cynomolgus, UniProt Q38J85 27-240)
T2 construct: extracellular domain; Analyte in SPR; also called cynomolgus LL-2Rβ; Cyno IL-2RB
T2 sequence (looked up): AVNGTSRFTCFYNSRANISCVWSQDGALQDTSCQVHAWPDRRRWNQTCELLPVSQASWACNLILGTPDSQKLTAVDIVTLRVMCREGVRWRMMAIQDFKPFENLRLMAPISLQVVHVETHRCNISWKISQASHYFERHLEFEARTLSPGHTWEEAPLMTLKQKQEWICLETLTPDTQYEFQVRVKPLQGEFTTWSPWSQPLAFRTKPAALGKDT


Legend:
[1] = biological target: T1, recombinant human IL-2Rβ (extracellular …); experiment: SPR, antibody captured on Protein A chip
How it was run: (§1)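 Antibodies captured on a Protein A chip (0.5 μg/mL, 60 s), then exposed to IL-2Rβ extracellular domain (Ala1-Thr215) at about 0.4–11 nM; 300 s association, 1200 s dissociation. On- and off-rates and KD from a global 1:1 binding fit.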

[2] = biological target: T2, recombinant cynomolgus IL-2Rβ …; experiment: SPR, antibody captured on Protein A chip
How it was run: as §1

| Binder | Kd [1] [nM] | Kd [2] [nM] |
| --- | --- | --- |
| APE15428 (antibody, M6-p1625 series) heavy: not shown light: DIQMTQSPSSLSASVGDRVTITCKASQNVGTDVAWYQQKPGKAPKSLIYSASYRYSGVPSRFSGSGSGTDFTLTISSLQPEDFATYFCHQYESYPFTFGQGTKLEIKRTVAAPSVFIFPPSDEQLKSGTASVVCLLNNFYPREAKVQWKVDNALQSGNSQESVTEQDSKDSTYSLSSTLTLSKADYEKHKVYACEVTHQGLSSPVTKSFNRGEC | 0.0567 | 0.0765 |
| APE15057 (antibody, V domains shown, M10-1275 series) VH: EVQLVQSGAEVKKPGATVKISCKVSGFNFKDSLMHWVQQAPGKGLEWMGWIDSENGETEYAPGFQDRVTITADTSTDTAYMELSSLRSEDTAVYYCARGGPWFLSYWGQGTTVTVSS VL: EIVMTQSPATLSVSPGERATLSCRASQIISNNLHWYQQKPGQAPRLLIYYGLQSISGIPARFSGSRSGTEFTLTISSLQSEDFAVYYCQQSNNWPWTFGQGTKLEIKR | 0.144 | 0.024 |
| APE15137 (antibody, V domains shown, M10-1275 series) VH: EVQLVQSGAEVKKPGATVKISCKVSGFNFKYSLMHWVQQAPGKGLEWMGWIDSENGETEYAPGFQDRVTITADTSTDTAYMELSSLRSEDTAVYYCARGGPWFLSYWGQGTTVTVSS VL: EIVMTQSPATLSVSPGERATLSCRASQIISNNLHWYQQKPGQAPRLLIIYGLQSISGIPARFSGSRSGTEFTLTISSLQSEDFAVYYCQQSNNWPWTFGQGTKLEIKR | 0.0518 | 0.0174 |
| APE15058 (antibody, V domains shown, M10-1275 series) VH: EVQLVQSGAEVKKPGATVKISCKVSGFNFKDSLMHWVQQAPGKGLEWMGWIDSENGETEYAPGFQDRVTITADTSTDTAYMELSSLRSEDTAVYYCARGGPWFLSYWGQGTTVTVSS VL: EIVMTQSPATLSVSPGERATLSCRASQIISNNLHWYQQKPGQAPRLLIYYGLQSISGIPARFSGSRSGTEFTLTISSLQSEDFAVYFCQQSNNWPWTFGQGTKLEIKR | 0.154 | 0.0223 |
| APE15172 (antibody, V domains shown, M10-1275 series) VH: EVQLVQSGAEVKKPGATVKISCKVSGFNFKYSLIHWVQQAPGKGLEWMGWIDNEAGETEYAPGFQDRVTITADTSTDTAYMELSSLRSEDTAVYYCARGGPWFLSYWGQGTTVTVSS VL: EIVMTQSPATLSVSPGERATLSCRASQIISNNLHWYQQKPGQAPRLLIIYGLQSISGIPARFSGSRSGTEFTLTISSLQSEDFAVYFCQQSNNWPYTFGQGTKLEIKR | 0.116 | 0.0271 |
| APE15168 (antibody, V domains shown, M10-1275 series) VH: EVQLVQSGAEVKKPGATVKISCKVSGFNFKESLIHWVQQAPGKGLEWMGWIDNEAGETEYAPGFQDRVTITADTSTDTAYMELSSLRSEDTAVYYCARGGPWFLSYWGQGTTVTVSS VL: EIVMTQSPATLSVSPGERATLSCRASQIISNNLHWYQQKPGQAPRLLIIYGLQSISGIPARFSGSRSGTEFTLTISSLQSEDFAVYFCQQSNNFPYTFGQGTKLEIKR | 0.324 | 0.0379 |
| APE15136 (antibody, V domains shown, M10-1275 series) VH: EVQLVQSGAEVKKPGATVKISCKVSGFNFKESLMHWVQQAPGKGLEWMGWIDSENGETEYAPGFQDRVTITADTSTDTAYMELSSLRSEDTAVYYCARGGPWFLSYWGQGTTVTVSS VL: EIVMTQSPATLSVSPGERATLSCRASQIISNNLHWYQQKPGQAPRLLIIYGLQSISGIPARFSGSRSGTEFTLTISSLQSEDFAVYYCQQSNNWPWTFGQGTKLEIKR | 0.0481 | 0.0114 |
| APE15171 (antibody, V domains shown, M10-1275 series) VH: EVQLVQSGAEVKKPGATVKISCKVSGFNFKYSLIHWVQQAPGKGLEWMGWIDNEAGETEYAPGFQDRVTITADTSTDTAYMELSSLRSEDTAVYYCARGGPWFLSYWGQGTTVTVSS VL: EIVMTQSPATLSVSPGERATLSCRASQIISNNLHWYQQKPGQAPRLLIIYGLQSISGIPARFSGSRSGTEFTLTISSLQSEDFAVYFCQQSNNFPYTFGQGTKLEIKR | 0.276 | 0.0522 |
| APE15167 (antibody, V domains shown, M10-1275 series) VH: EVQLVQSGAEVKKPGATVKISCKVSGFNFKESLMHWVQQAPGKGLEWMGWIDVEAGETEYAPGFQDRVTITADTSTDTAYMELSSLRSEDTAVYYCARGGPWFLSYWGQGTTVTVSS VL: EIVMTQSPATLSVSPGERATLSCRASQIISNNLHWYQQKPGQAPRLLIIYGLQSISGIPARFSGSRSGTEFTLTISSLQSEDFAVYYCQQSNNWPWTFGQGTKLEIKR | 0.045 | 0.00655 |
| APE15059 (antibody, V domains shown, M10-1275 series) VH: EVQLVQSGAEVKKPGATVKISCKVSGFNFKDSLMHWVQQAPGKGLEWMGWIDSENGETEYAPGFQDRVTITADTSTDTAYMELSSLRSEDTAVYYCARGGPWFLSYWGQGTTVTVSS VL: EIVMTQSPATLSVSPGERATLSCRASQIISNNLHWYQQKPGQAPRLLIIYGLQSISGIPARFSGSRSGTEFTLTISSLQSEDFAVYYCQQSNNWPWTFGQGTKLEIKR | 0.0697 | 0.0159 |

Stronger by Kd [1], values ahead:

| Kd [1] [nM] | Kd [2] [nM] | Binder |
| --- | --- | --- |
| 0.022 | 0.0103 | APE15141 (antibody, V domains shown, M10-1275 series) VH: EVQLVQSGAEVKKPGATVKISCKVSGFNFKESLMHWVQQAPGKGLEWMGWIDNEAGETEYAPGFQDRVTITADTSTDTAYMELSSLRSEDTAVYYCARGGPWFLSYWGQGTTVTVSS VL: EIVMTQSPATLSVSPGERATLSCRASQIISNNLHWYQQKPGQAPRLLIIYGLQSISGIPARFSGSRSGTEFTLTISSLQSEDFAVYYCQQSNNWPWTFGQGTKLEIKR |
| 0.0352 | 0.00923 | APE15139 (antibody, V domains shown, M10-1275 series) VH: EVQLVQSGAEVKKPGATVKISCKVSGFNFKESLIHWVQQAPGKGLEWMGWIDVEAGETEYAPGFQDRVTITADTSTDTAYMELSSLRSEDTAVYYCARGGPWFLSYWGQGTTVTVSS VL: EIVMTQSPATLSVSPGERATLSCRASQIISNNLHWYQQKPGQAPRLLIIYGLQSISGIPARFSGSRSGTEFTLTISSLQSEDFAVYYCQQSNNWPWTFGQGTKLEIKR |
| 0.0297 | 0.0116 | APE15144 (antibody, V domains shown, M10-1275 series) VH: EVQLVQSGAEVKKPGATVKISCKVSGFNFKLSLIHWVQQAPGKGLEWMGWIDNEAGETEYAPGFQDRVTITADTSTDTAYMELSSLRSEDTAVYYCARGGPWFLSYWGQGTTVTVSS VL: EIVMTQSPATLSVSPGERATLSCRASQIISNNLHWYQQKPGQAPRLLIIYGLQSISGIPARFSGSRSGTEFTLTISSLQSEDFAVYYCQQSNNWPWTFGQGTKLEIKR |
| 0.0178 | 0.00599 | APE15276 (antibody, V domains shown, M10-1275 series) VH: EVQLVQSGAEVKKPGATVKISCKVSGFNFKESLIHWVQQAPGKGLEWMGWIDNEAGETEYAPGFQDRVTITADTSTDTAYMELSSLRSEDTAVYYCARSGPWFLSYWGQGTTVTVSS VL: EIVMTQSPATLSVSPGERATLSCRASQIISNNLHWYQQKPGQAPRLLIIYGLQSISGIPARFSGSRSGTEFTLTISSLQSEDFAVYFCQQSNNFPWTFGQGTKLEIKR |
| 0.0251 | 0.00972 | APE15143 (antibody, V domains shown, M10-1275 series) VH: EVQLVQSGAEVKKPGATVKISCKVSGFNFKYSLMHWVQQAPGKGLEWMGWIDNEAGETEYAPGFQDRVTITADTSTDTAYMELSSLRSEDTAVYYCARGGPWFLSYWGQGTTVTVSS VL: EIVMTQSPATLSVSPGERATLSCRASQIISNNLHWYQQKPGQAPRLLIIYGLQSISGIPARFSGSRSGTEFTLTISSLQSEDFAVYYCQQSNNWPWTFGQGTKLEIKR |
| 0.0436 | 0.0163 | APE15138 (antibody, V domains shown, M10-1275 series) VH: EVQLVQSGAEVKKPGATVKISCKVSGFNFKLSLMHWVQQAPGKGLEWMGWIDSENGETEYAPGFQDRVTITADTSTDTAYMELSSLRSEDTAVYYCARGGPWFLSYWGQGTTVTVSS VL: EIVMTQSPATLSVSPGERATLSCRASQIISNNLHWYQQKPGQAPRLLIIYGLQSISGIPARFSGSRSGTEFTLTISSLQSEDFAVYYCQQSNNWPWTFGQGTKLEIKR |
| 0.0282 | 0.0105 | APE15135 (antibody, V domains shown, M10-1275 series) VH: EVQLVQSGAEVKKPGATVKISCKVSGFNFKDSLMHWVQQAPGKGLEWMGWIDNENGETEYAPGFQDRVTITADTSTDTAYMELSSLRSEDTAVYYCARGGPWFLSYWGQGTTVTVSS VL: EIVMTQSPATLSVSPGERATLSCRASQIISNNLHWYQQKPGQAPRLLIIYGLQSISGIPARFSGSRSGTEFTLTISSLQSEDFAVYYCQQSNNWPWTFGQGTKLEIKR |
| 0.0296 | 0.0108 | APE15145 (antibody, V domains shown, M10-1275 series) VH: EVQLVQSGAEVKKPGATVKISCKVSGFNFKLSLMHWVQQAPGKGLEWMGWIDNEAGETEYAPGFQDRVTITADTSTDTAYMELSSLRSEDTAVYYCARGGPWFLSYWGQGTTVTVSS VL: EIVMTQSPATLSVSPGERATLSCRASQIISNNLHWYQQKPGQAPRLLIIYGLQSISGIPARFSGSRSGTEFTLTISSLQSEDFAVYYCQQSNNWPWTFGQGTKLEIKR |
| 0.0184 | 0.00509 | APE15173 (antibody, V domains shown, M10-1275 series) VH: EVQLVQSGAEVKKPGATVKISCKVSGFNFKYSLIHWVQQAPGKGLEWMGWIDNEAGETEYAPGFQDRVTITADTSTDTAYMELSSLRSEDTAVYYCARGGPWFLSYWGQGTTVTVSS VL: EIVMTQSPATLSVSPGERATLSCRASQIISNNLHWYQQKPGQAPRLLIIYGLQSISGIPARFSGSRSGTEFTLTISSLQSEDFAVYFCQQSNNFPWTFGQGTKLEIKR |
